According to patent US20260108496A1, “METHODS FOR REPROGRAMING EXHAUSTED T CELLS AND BOOSTING IMMUNE CHECKPOINT BLOCKADE THERAPY FOR CANCER” (Ohio State Innovation Foundation, priority 2022, published 2026):

Tests used:
Dysf. CD8+ T cells = assay: reprogramming treatment of Dysf. (chronic TCR plus TGFβ1) human CD8+ T cells; assay type: cell-based; conditions: sorted most dysfunctional subset, added to RepSox
Protocol: On day 7, viable CD8+ T cells were FACS-purified using the Sony MA900 cell sorter. Purified CD8+ T cells were then continuously stimulated in plates coated with anti-CD3 only (5 ug/ml). Media was replenished every 2-3 days, and cells were incubated at 37 C and 5% CO2 throughout the duration of the experiment. Human TGFβ1 (5 ng/ml, Peprotech) was added to the media starting on day 7. Treatment with RepSox (25 μM) and SB4 (10 μM) (MedChemExpress LLC) or vehicle control (DMSO, ThermoFisher) were added to the media starting on day 14 or 21. Vitamin C (100 μM, MedChemExpress LLC) was added to the media starting on day 21. For the acute TCR stimulation condition, anti-CD3 was no longer added to the media starting on day 7. For recovery experiments in FIG. 16 and FIGS. 22 and 26, CD8+ T cells were rested from TCR stimulation and TGFβ1 starting on day 28 for 7-14 days in T cell media containing recombinant human IL-15 only (10 ng/ml).
On days 7, 14, 21, and 28 (and day 35 and 42 for recovery experiments), human CBMCs were stimulated with PMA/Ionomycin (Cell Stimulation Cocktail plus protein transport inhibitors, eBioscience) for 3 hours at 37° C., 5% CO2. Incubation was followed immediately by antibody intracellular staining for flow cytometry.
Human CBMCs from ex vivo stimulation experiments (acute or chronic TCR, and chronic TCR+TGFβ1) were labeled with 5(6)-Carboxyfluorescein diacetate N-succinimidyl ester (CFSE) (1 μM, Sigma) by staining in PBS for 7 minutes at room temperature, followed by quenching with 20% FBS. Proliferation was tracked on days 35 and 42 by assessing CFSE fluorescence via flow cytometry. Each peak of CFSE fluorescence signal represents one cell division cycle.

human CD8+ T cells [1] = assay: whole-genome bisulfite sequencing of human CD8+ T cells; assay type: cell-based; conditions: combined with RepSox
Protocol: Human CD8+ T cells were sorted on days 0 (naïve), 7, and 28, and genomic DNA was extracted and bisulfite-treated to convert unmethylated cytosine to uracil residues using the EZ DNA Methylation-Direct Kit (Zymo). DNA libraries were prepared using Swift Accel-NGS® D Methyl-Seq DNA Library Kit according to the manufacturer's protocol. The libraries were purified by the AMPureXP Beads followed by QC using Qubit method, and the purified DNA was captured on an Illumina flow cell for cluster generation. Libraries were sequenced on the NovaSeq-S2 platform following the manufacturer's protocols. Sequencing data were aligned to the Hg38 genome using BSMAP. Adapter were trimmed from FASTQ sequences (trimglore) and mapped to the hg38 genome using the BSMAP v. 2.74 software. CpGs were extracted by the methratio.py in the BSMAP package. Differential analysis of CpG methylation among the datasets was determined with a Bayesian hierarchical model to detect regional methylation differences with at least three CpG site. Differentially methylated regions (DMRs) were identified using Bioconductor package DSS and custom R scripts with a threshold of 30% change in methylation ratio and P-value <0.01 with at least 10 reads per CpG site as a cutoff.

human CD8+ T cells [2] = assay: chronic TCR stimulation of human CBMCs in the presence of TGFβ1; assay type: cell-based
Protocol: For “Weak TCR” stimulation, 30 ng/ml of purified monoclonal anti-human CD3 (clone: OKT3; BioLegend) was continuously added onto the seeded CBMCs to provide TCR stimulation plus natural costimulation via CD80/CD86 on Fc-expressing CBMCs that survive in the first few days. For “Strong TCR” stimulation setting, flat-bottom plates were coated with purified monoclonal anti-human CD3 (5 ug/ml) and anti-human CD28 (1 ug/ml) (clone: CD28.2; BioLegend) at 4° C. overnight, then CMBCs were isolated and seeded in complete T cell medium as described above on day 0. On day 7, viable CD8+ T cells were FACS-purified using the Sony MA900 cell sorter. Purified CD8+ T cells were then continuously stimulated in plates coated with anti-CD3 only (5 ug/ml). Media was replenished every 2-3 days, and cells were incubated at 37 C and 5% CO2 throughout the duration of the experiment. Human TGFβ1 (5 ng/ml, Peprotech) was added to the media starting on day 7. Treatment with RepSox (25 μM) and SB4 (10 μM) (MedChemExpress LLC) or vehicle control (DMSO, ThermoFisher) were added to the media starting on day 14 or 21. Vitamin C (100 μM, MedChemExpress LLC) was added to the media starting on day 21. For the acute TCR stimulation condition, anti-CD3 was no longer added to the media starting on day 7. […]

P14 CD8 T cells = assay: in-vitro co-culture of P14 CD8 T cells with CT2A-gp33 tumor cells (Example 1); assay type: cell-based, mouse; conditions: P14 cells
Text: To study their epigenetic (re)programming, we developed a novel in-vitro model of CD8 T cell exhaustion. First, we optimized conditions for in-vitro co-culture of gp33-expressing murine brain tumor cells (CT2A-gp33) and TCR transgenic gp33-specific CD8 T cells (P14 cells). We were able to enforce differentiation of anti-tumor CD8 T cells under their persistent TCR stimulation by repeated exposure to the tumor antigen and tumor-derived factors, such as TGFβ1. […] However, with prolonged exposure to the tumor antigen, the effector CD8 T cells progressively lose cytokine production and tumor killing activity (FIGS. 8A, 8B, and 8C).
To assess the impact of TGFβ1 signaling on the progression of CD8 T cells toward dysfunction, we treated co-cultures with TGFβ1 or RepSox (also known as E-616452) (2-(3-(6-Methylpyridine-2-yl)-1H-pyrazol-4-yl)-1,5-naphthyridine) as shown in the formula: […]
RepSox is a potent selective inhibitor of the TGFβ type 1 receptor (ALK5)—for 11 days after effector differentiation was complete (day 6).
We also examined the impact of BMP-2/4 signaling on RepSox-treated P14 CD8 T cells. […] Taken together, our findings indicate that TGFβ1-signaling not only accelerates the development of T cell dysfunction, but also maintains silencing of lymphoid homing markers on CD8 T cells. Importantly, our findings support the feasibility of using this novel in-vitro model as a tractable tool that can guide our in-vivo work by providing first-line mechanistic studies.

adult CD8+ T cells = assay: chronic TCR plus TGFβ1 stimulation of adult CD8+ T cells from healthy blood donors; assay type: cell-based, human
Protocol: Isolated adult PBMCs were stained on day 0 for cell sorting of naïve CD8+ T cells (viable CD3+ CD8+ CCR7+ CD45RO−) and viable CD3− PBMCs using the Sony MA900 sorter. The cells were seeded into 96-well U-bottom plate (˜5,000 naïve T cells+45,000 CD3− cells per well) on day 0 with 30 ng/ml of purified anti-human CD3, in complete T cell medium as described above. On day 4, the wells were transferred to a 96-well flat-bottom plate coated with anti-human CD3 and CD28 antibodies as described above, and stimulation was continued for an additional three days. On day 7, the cells were returned to culture with continuous stimulation using soluble anti-CD3 (30 ng/ml) or repeated plate-bound anti-CD3 stimulation through day 28. Media was replenished every 2-3 days. Treatments were added to the media as described above for CBMCs experiments.

[3] = test system: SMAD1/5/8 phosphorylation; conditions: cited from earlier work
human CD8 T cells = assay: treatment of human CD8 T cells with BMP ligands under chronic strong TCR stimulation; assay type: cell-based; conditions: for expression levels of terminal exhaustion-associated molecules (CD39, CD101, CD103): day 21; for frequencies of IFNγ-producing CD8 T cells: days 14 and 21
Text: BMP ligands can signal through type 1 (BMPR1, ACVR1) or type 2 receptors (BMPR2, ACVR2), which typically form heterotetramers upon ligand binding. Once heterotetramers are activated by ligands, they phosphorylate SMAD1/5/8 that binds to SMAD4 and translocates to nucleus and bind to target genes.

[4] = adult naïve CD8+ T cells, post-effector exposure

Molecule: O=C1O[C@H]([C@@H](O)CO)C(O)=C1O [vitamin C]
- effector cytokine production (Dysf. CD8+ T cells): further enhanced
- DNA methylation patterns in Dysf. CD8+ T cells (human CD8+ T cells [1]): more pronounced

Molecule: TGFβ1: Human TGFβ1 cytokine (5 ng/ml, Peprotech)
- effector functions in chronically stimulated T cells (human CD8+ T cells [2]; TGFβ1 started after effector differentiation (day 7-28)): significantly reduced
- survival of chronically stimulated CD8+ T cells (human CD8+ T cells [2]; strong TCR stimulation): supported the survival
- production of IFNγ and TNFα (P14 CD8 T cells; persistent treatment for 11 days from day 6 of co-culture): accelerated the impairment
- expression of T-bet and Granzyme B (P14 CD8 T cells; persistent treatment from day 6): repressed expression
- expression of dysfunction-associated markers (adult CD8+ T cells; [4]): increased expression
- function of chronically stimulated adult CD8+ T cells (adult CD8+ T cells; [4]): induced functional impairment
- polyfunctionality (adult CD8+ T cells; adult polyclonal effector memory (CD45RO+ CCR7−) CD8+ T cells): did not impact
- CD103 expression (adult CD8+ T cells; adult polyclonal effector memory CD8+ T cells): significant upregulation

B1: BMP6: natural BMP ligand (protein, UniProt P22004 375-513, looked up)
Bone morphogenetic protein 6: SASSRRRQQSRNRSTQSQDVARVSSASDYNSSELKTACRKHELYVSFQDLGWQDWIIAPKGYAANYCDGECSFPLNAHMNATNHAIVQTLVHLMNPEYVPKPCCAPTKLNAISVLYFDDNSNVILKKYRNMVVRACGCH
modifications: Bone morphogenetic protein 6
notes: natural BMP ligand
- activation of SMAD1/5/8 phosphorylation [3]: strong
- expression levels of terminal exhaustion-associated molecules (CD39, CD101, CD103) (human CD8 T cells): downregulated

B2: BMP14: BMP ligand (protein, UniProt P43026 382-501, looked up)
Growth/differentiation factor …: APLATRQGKRPSKNLKARCSRKALHVNFKDMGWDDWIIAPLEYEAFHCEGLCEFPLRSHLEPTNHAVIQTLMNSMDPESTPPTCCVPTRLSPISILFIDSANNVVYKQYEDMVVESCGCR
modifications: Growth/differentiation factor 5
notes: BMP ligand
- activation of SMAD1/5/8 phosphorylation [3]: medium or weak

B3: BMP10: natural BMP ligand (protein, UniProt O95393 317-424, looked up)
Bone morphogenetic protein 10: NAKGNYCKRTPLYIDFKEIGWDSWIIAPPGYEAYECRGVCNYPLAEHLTPTKHAIIQALVHLKNSQKASKACCVPTKLEPISILYLDKGVVTYKFKYEGMAVSECGCR
- activation of SMAD1/5/8 phosphorylation [3]: medium or weak
- expression levels of terminal exhaustion-associated molecules (CD39, CD101, CD103) (human CD8 T cells): downregulated
- frequencies of IFNγ-producing CD8 T cells (human CD8 T cells): significantly higher frequencies

B4: BMP4: natural BMP ligand, bone morphogenic protein 4 (protein, UniProt P12644 293-408, looked up)
Bone morphogenetic protein 4: SPKHHSQRARKKNKNCRRHSLYVDFSDVGWNDWIVAPPGYQAFYCHGDCPFPLADHLNSTNHAIVQTLVNSVNSSIPKACCVPTELSAISMLYLDEYDKVVLKNYQEMVVEGCGCR
modifications: Bone morphogenetic protein 4
- activation of SMAD1/5/8 phosphorylation [3]: strong
- numbers of chronically stimulated human CD8 T cells (human CD8 T cells; chronic strong TCR stimulation): preserved significantly higher numbers
- expression levels of terminal exhaustion-associated molecules (CD39, CD101, CD103) (human CD8 T cells): downregulated
- frequencies of IFNγ-producing CD8 T cells (human CD8 T cells): significantly higher frequencies

B5: BMP12: BMP ligand (protein, UniProt Q7Z4P5 322-450, looked up)
Growth/differentiation factor …: TALAGTRTAQGSGGGAGRGHGRRGRSRCSRKPLHVDFKELGWDDWIIAPLDYEAYHCEGLCDFPLRSHLEPTNHAIIQTLLNSMAPDAAPASCCVPARLSPISILYIDAANNVVYKQYEDMVVEACGCR
- activation of SMAD1/5/8 phosphorylation [3]: medium or weak
